Reference: paper PMC4525382, “Functional characterization and expression analysis of rice δ^1-pyrroline-5-carboxylate dehydrogenase provide new insight into the regulation of proline and arginine catabolism” (Frontiers in Plant Science, 2015)

How the values were obtained:
[1] = biological target: T1, rice P5C dehydrogenase (OsP5CDH) (Oryza sativa, UniProt B9FLB9); assay: NAD(P)H absorbance at […] nm, non-linear regression; assay type: biochemical
T1 construct: gene Os05g0536400; mature form lacking the 16-residue predicted mitochondrial transit peptide; N-terminal His6 tag (pET151, TEV-cleavable; tag without effect); E. coli BL21(DE3) pLysS; monomer 57,670 Da; homotetramer 259 kDa
T1 sequence (B9FLB9 17-550): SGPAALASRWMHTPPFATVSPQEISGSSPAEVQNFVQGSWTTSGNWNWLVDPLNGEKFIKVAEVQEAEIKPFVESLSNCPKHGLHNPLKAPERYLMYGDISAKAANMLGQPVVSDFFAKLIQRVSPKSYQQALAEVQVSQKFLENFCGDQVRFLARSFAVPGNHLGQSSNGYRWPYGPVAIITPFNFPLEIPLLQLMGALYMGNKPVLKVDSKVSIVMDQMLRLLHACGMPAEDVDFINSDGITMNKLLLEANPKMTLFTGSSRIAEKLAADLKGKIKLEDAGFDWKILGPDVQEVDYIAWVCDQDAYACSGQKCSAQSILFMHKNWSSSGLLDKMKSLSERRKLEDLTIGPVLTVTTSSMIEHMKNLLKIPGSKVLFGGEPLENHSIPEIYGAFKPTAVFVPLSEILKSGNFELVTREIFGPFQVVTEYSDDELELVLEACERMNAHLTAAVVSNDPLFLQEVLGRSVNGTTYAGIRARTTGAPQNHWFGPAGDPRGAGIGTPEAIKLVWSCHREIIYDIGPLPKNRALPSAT

[2] = biological target: T1, rice P5C dehydrogenase (OsP5CDH); assay: NAD(P)H absorbance at […] nm, kinetic analysis; assay type: biochemical
[3] = biological target: rice P5C dehydrogenase, truncated version lacking the predicted mitochondrial transit peptide (Oryza sativa (rice)); assay: SEC; gel permeation on Superose 12 HR 10/30; 100 uL of purified protein at 0.5 mg/mL; 50 mM Tris-HCl pH 7.75, 250 mM NaCl (same pattern from 250 mM to 1 M NaCl); column calibrated with mass markers; six runs
purified protein [4] = substrate: NC(=O)c1ccc[n+]([C@@H]2O[C@H](COP(=O)(O)OP(=O)(O)OC[C@H]3O[C@@H](n4cnc5c(N)ncnc54)[C@H](O)[C@@H]3O)[C@@H](O)[C@H]2O)c1; assay: purified protein; assay type: biochemical, Oryza sativa; conditions: 1 mM L-P5C, 50 mM Hepes-KOH pH 7.5, 35 °C, varied: cofactor
purified protein [5] = substrate: O=C(O)[C@@H]1CCC=N1; assay: purified protein; assay type: biochemical, Oryza sativa; conditions: 10 mM NAD+ co-substrate, 50 mM Hepes-KOH pH 7.5, 35 °C
purified protein [6] = substrate: NC(=O)c1ccc[n+]([C@@H]2O[C@H](COP(=O)(O)OP(=O)(O)OC[C@H]3O[C@@H](n4cnc5c(N)ncnc54)[C@H](OP(=O)(O)O)[C@@H]3O)[C@@H](O)[C@H]2O)c1; assay: purified protein; assay type: biochemical, Oryza sativa; conditions: 1 mM L-P5C, 50 mM Hepes-KOH pH 7.5, 35 °C, varied: cofactor

N=C(N)NCCC[C@H](N)C(=O)O [arginine]
IC50 [1]: 87 ± 11 mM | Ki [2]: 62.3 ± 2.4 mM

rice P5C dehydrogenase, truncated version lacking the predicted mitochondrial transit peptide (enzyme)
stoichiometry N [3]: 4

B1: rice P5C dehydrogenase (OsP5CDH) (Oryza sativa Japonica Group) (protein)
chain: SGPAALASRWMHTPPFATVSPQEISGSSPAEVQNFVQGSWTTSGNWNWLVDPLNGEKFIKVAEVQEAEIKPFVESLSNCPKHGLHNPLKAPERYLMYGDISAKAANMLGQPVVSDFFAKLIQRVSPKSYQQALAEVQVSQKFLENFCGDQVRFLARSFAVPGNHLGQSSNGYRWPYGPVAIITPFNFPLEIPLLQLMGALYMGNKPVLKVDSKVSIVMDQMLRLLHACGMPAEDVDFINSDGITMNKLLLEANPKMTLFTGSSRIAEKLAADLKGKIKLEDAGFDWKILGPDVQEVDYIAWVCDQDAYACSGQKCSAQSILFMHKNWSSSGLLDKMKSLSERRKLEDLTIGPVLTVTTSSMIEHMKNLLKIPGSKVLFGGEPLENHSIPEIYGAFKPTAVFVPLSEILKSGNFELVTREIFGPFQVVTEYSDDELELVLEACERMNAHLTAAVVSNDPLFLQEVLGRSVNGTTYAGIRARTTGAPQNHWFGPAGDPRGAGIGTPEAIKLVWSCHREIIYDIGPLPKNRALPSAT
notes: mature form lacking the 16-residue predicted mitochondrial transit peptide; N-terminal His6 tag (pET151, TEV-cleavable; tag without effect); E. coli BL21(DE3) pLysS; monomer 57,670 Da; homotetramer 259 kDa
Km (purified protein [4]): 644 ± 30 µM | Vmax (purified protein [4]): 196.9 ± 2.1 nkat (mg protein)^−1 | kcat (purified protein [4]): 12 s⁻¹ | Km (purified protein [5]): 358 ± 14 µM | Km (purified protein [6]): 4695 ± 462 µM | Vmax (purified protein [6]): 49.2 ± 1.7 nkat (mg protein)^−1 | kcat (purified protein [6]): 3 s⁻¹
